Test results published in publication PMC9482650, “Quantitative fragmentomics allow affinity mapping of interactomes” (Nature Communications, 2022).

Legend:
Test in all cases: holdup assay
Parameters in all cases: key: below the threshold = too weak to quantify, mostly under pKd 3.1 to 4
[1] = target: DLG2_3, Q15700
[2] = target: HTRA2, O43464
[3] = target: SNX27, Q96L92
[4] = target: T1, DLG3_1, Q92796
T1 sequence (Q92796 125-227, limits assumed, looked up): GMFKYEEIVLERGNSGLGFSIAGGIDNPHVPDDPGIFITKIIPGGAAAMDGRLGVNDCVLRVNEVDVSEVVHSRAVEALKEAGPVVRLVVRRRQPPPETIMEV

[5] = target: T2, SNTB1, Q13884
T2 sequence (Q13884 107-205, limits assumed, looked up): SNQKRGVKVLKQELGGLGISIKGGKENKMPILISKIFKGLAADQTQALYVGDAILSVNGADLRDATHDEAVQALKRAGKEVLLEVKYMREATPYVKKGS

[6] = target: FRMPD2_1, Q68DX3
[7] = target: PARD3_3, Q8TEW0
[8] = target: T3, RAPGEF6, Q8TEU7
T3 sequence (Q8TEU7 525-625, limits assumed, looked up): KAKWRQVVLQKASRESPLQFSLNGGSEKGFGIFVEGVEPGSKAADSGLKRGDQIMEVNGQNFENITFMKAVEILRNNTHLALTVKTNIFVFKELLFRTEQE

[9] = target: T4, APBA2_1, Q99767
T4 sequence (Q99767 563-664, limits assumed, looked up): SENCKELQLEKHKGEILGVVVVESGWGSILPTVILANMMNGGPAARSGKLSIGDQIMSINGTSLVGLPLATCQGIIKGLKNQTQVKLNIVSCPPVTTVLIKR

[10] = target: DLG5_1, Q8TDM6
[11] = target: T5, PDZD2_2, O15018
T5 sequence (O15018 329-429, limits assumed, looked up): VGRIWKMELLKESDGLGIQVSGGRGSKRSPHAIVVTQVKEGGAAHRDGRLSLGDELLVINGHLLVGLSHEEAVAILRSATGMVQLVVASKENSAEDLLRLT

[12] = target: MAGI2_6, Q86UL8
[13] = target: T6, MPP6, Q9NZW5
T6 sequence (Q9NZW5 125-219, limits assumed, looked up): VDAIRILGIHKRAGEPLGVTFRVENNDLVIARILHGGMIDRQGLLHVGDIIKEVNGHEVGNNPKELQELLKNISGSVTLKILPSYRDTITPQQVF

[14] = target: T7, DVL3, Q92997
T7 sequence (Q92997 244-331, limits assumed, looked up): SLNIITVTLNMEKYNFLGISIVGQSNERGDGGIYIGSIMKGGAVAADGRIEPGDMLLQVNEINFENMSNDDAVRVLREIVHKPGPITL

[15] = target: AHNAK1, Q09666
[16] = target: T8, PTPN13_1, Q12923
T8 sequence (Q12923 1088-1188, limits assumed, looked up): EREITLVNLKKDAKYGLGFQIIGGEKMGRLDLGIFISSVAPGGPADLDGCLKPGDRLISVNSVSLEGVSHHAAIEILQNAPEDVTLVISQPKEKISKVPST

[17] = target: T9, SNTA1, Q13424
T9 sequence (Q13424 82-180, limits assumed, looked up): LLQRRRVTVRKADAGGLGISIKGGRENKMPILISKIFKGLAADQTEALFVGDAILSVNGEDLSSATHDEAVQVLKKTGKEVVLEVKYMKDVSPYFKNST

[18] = target: FRMPD2_3, Q68DX3
[19] = target: LAP2, Q96RT1
[20] = target: GRIP2_6, Q9C0E4
[21] = target: IL16_4, Q14005
[22] = target: T10, ARHGEF11, O15085
T10 sequence (O15085 42-136, limits assumed, looked up): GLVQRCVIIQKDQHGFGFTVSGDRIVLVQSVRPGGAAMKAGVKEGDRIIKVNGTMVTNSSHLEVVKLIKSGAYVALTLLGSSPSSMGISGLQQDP

[23] = target: T11, APBA3_1, O96018
T11 sequence (O96018 389-490, limits assumed, looked up): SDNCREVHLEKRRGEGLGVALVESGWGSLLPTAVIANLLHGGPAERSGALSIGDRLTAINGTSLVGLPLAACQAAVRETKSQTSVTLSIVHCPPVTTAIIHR

[24] = target: T12, MPP7, Q5T2T1
T12 sequence (Q5T2T1 134-230, limits assumed, looked up): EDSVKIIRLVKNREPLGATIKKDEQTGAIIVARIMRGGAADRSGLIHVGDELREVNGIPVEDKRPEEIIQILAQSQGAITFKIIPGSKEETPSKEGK

[25] = target: T13, LRRC7, Q96NW7
T13 sequence (Q96NW7 1440-1537, limits assumed, looked up): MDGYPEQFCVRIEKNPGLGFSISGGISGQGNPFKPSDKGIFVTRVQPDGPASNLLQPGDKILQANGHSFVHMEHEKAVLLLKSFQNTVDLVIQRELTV

[26] = plain residues with an end cap or a label only (N-terminal biotin on a linker: none)
[27] = plain residues with an end cap or a label only (N-terminal biotin on a linker: ahx)
[28] = plain residues with an end cap or a label only (N-terminal biotin on a linker: gsgsgs; C-terminal amide)
[29] = plain residues with an end cap or a label only (N-terminal biotin on a linker: ttds)

Sequence of IL16_4, Q14005 (Q14005 1229-1329): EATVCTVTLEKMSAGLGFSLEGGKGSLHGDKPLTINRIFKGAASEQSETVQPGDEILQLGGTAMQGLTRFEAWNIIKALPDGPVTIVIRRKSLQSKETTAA
Sequence of MAGI2_6, Q86UL8 (Q86UL8 1141-1229): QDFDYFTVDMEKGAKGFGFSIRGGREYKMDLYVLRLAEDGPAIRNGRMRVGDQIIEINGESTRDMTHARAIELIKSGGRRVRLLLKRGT
Sequence of LAP2, Q96RT1 (Q96RT1 other isoform, or with tags, fused parts or gaps): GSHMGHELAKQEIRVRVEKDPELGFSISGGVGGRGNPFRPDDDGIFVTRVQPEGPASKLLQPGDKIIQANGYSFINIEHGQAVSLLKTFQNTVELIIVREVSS
Sequence of HTRA2, O43464 (O43464 355-458): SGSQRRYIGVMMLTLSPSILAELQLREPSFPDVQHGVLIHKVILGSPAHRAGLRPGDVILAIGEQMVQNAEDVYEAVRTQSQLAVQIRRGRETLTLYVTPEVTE
Sequence of DLG5_1, Q8TDM6 (Q8TDM6 617-713): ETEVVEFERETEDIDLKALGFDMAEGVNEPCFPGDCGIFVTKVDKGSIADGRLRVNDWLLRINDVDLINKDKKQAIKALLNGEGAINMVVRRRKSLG
Sequence of FRMPD2_3, Q68DX3 (Q68DX3 1073-1166): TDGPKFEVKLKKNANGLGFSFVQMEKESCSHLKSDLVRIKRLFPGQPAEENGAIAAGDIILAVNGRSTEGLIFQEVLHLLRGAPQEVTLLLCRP
Sequence of GRIP2_6, Q9C0E4 (Q9C0E4 648-740): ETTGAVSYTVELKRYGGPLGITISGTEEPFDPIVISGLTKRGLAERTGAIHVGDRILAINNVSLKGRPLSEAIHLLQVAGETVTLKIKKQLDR
Sequence of FRMPD2_1, Q68DX3 (Q68DX3 770-861): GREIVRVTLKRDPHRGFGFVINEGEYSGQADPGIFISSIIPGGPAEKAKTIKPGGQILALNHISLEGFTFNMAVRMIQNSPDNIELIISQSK
Sequence of PARD3_3, Q8TEW0 (Q8TEW0 582-685): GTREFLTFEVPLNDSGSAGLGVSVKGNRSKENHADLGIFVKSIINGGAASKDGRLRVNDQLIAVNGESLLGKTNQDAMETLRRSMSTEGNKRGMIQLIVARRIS

In the case of NLNSSRVPDLLV [SARS-CoV2-E, P0DTC4], the pKd [1, 26] is reported as “below the threshold”, the pKd [2, 26] is reported as “below the threshold” and the pKd [3, 26] is reported as “below the threshold”. The pKd [4, 26] was “below the threshold”, the pKd [5, 26] was “below the threshold” and the pKd [6, 26] was “below the threshold”. The pKd [7, 26] was 3.82, the pKd [8, 26] was “below the threshold” and the pKd [9, 26] was “below the threshold”. The pKd [10, 26] was “below the threshold”, the pKd [11, 26] was “below the threshold” and the pKd [12, 26] was “below the threshold”. The pKd [13, 26] was “below the threshold”, the pKd [14, 26] was “below the threshold” and the pKd [15, 26] was “below the threshold”. For the same binder, the pKd [16, 26] was “below the threshold”, the pKd [17, 26] was “below the threshold” and the pKd [18, 26] was “below the threshold”. For the same binder, the pKd [19, 26] was “below the threshold”, the pKd [20, 26] was “below the threshold” and the pKd [21, 26] was “below the threshold”. For the same binder, the pKd [22, 26] was “below the threshold”, the pKd [23, 26] was “below the threshold” and the pKd [24, 26] was “below the threshold”. For the same binder, the pKd [25, 26] was “below the threshold”.

For PSASCAVTAA [PDLIM4, P50479;P50479-2], the pKd [1, 27] was “below the threshold”, the pKd [2, 27] was “below the threshold” and the pKd [3, 27] was “below the threshold”. The pKd [4, 27] was “below the threshold”, the pKd [5, 27] was “below the threshold” and the pKd [6, 27] was “below the threshold”. For the same binder, the pKd [7, 27] was “below the threshold”, the pKd [8, 27] was “below the threshold” and the pKd [9, 27] was “below the threshold”. For the same binder, the pKd [10, 27] was “below the threshold”, the pKd [11, 27] was “below the threshold” and the pKd [12, 27] was “below the threshold”. The pKd [13, 27] was “below the threshold”, the pKd [14, 27] was “below the threshold” and the pKd [15, 27] was “below the threshold”. The pKd [16, 27] was “below the threshold”, the pKd [17, 27] was “below the threshold” and the pKd [18, 27] was “below the threshold”. For the same binder, the pKd [19, 27] was “below the threshold”, the pKd [20, 27] was “below the threshold” and the pKd [21, 27] was “below the threshold”. The pKd [22, 27] was “below the threshold”, the pKd [23, 27] was “below the threshold” and the pKd [24, 27] was “below the threshold”. The pKd [25, 27] was “below the threshold”.

With VSVDDVRSTSQGLSSY [DFNB31_int, Q9P202] the pKd [1, 28] was 3.55, the pKd [2, 28] was “below the threshold” and the pKd [3, 28] was “below the threshold”. For the same binder, the pKd [4, 28] was “below the threshold”, the pKd [5, 28] was “below the threshold” and the pKd [6, 28] was “below the threshold”. For the same binder, the pKd [7, 28] was “below the threshold”, the pKd [8, 28] was “below the threshold” and the pKd [9, 28] was “below the threshold”. The pKd [10, 28] was “below the threshold”, the pKd [11, 28] was “below the threshold” and the pKd [12, 28] was “below the threshold”. For the same binder, the pKd [13, 28] was 3.65, the pKd [14, 28] was “below the threshold” and the pKd [15, 28] was “below the threshold”. For the same binder, the pKd [16, 28] was “below the threshold”, the pKd [17, 28] was “below the threshold” and the pKd [18, 28] was “below the threshold”. For the same binder, the pKd [19, 28] was 3.7, the pKd [20, 28] was “below the threshold” and the pKd [21, 28] was “below the threshold”. The pKd [22, 28] was “below the threshold”, the pKd [23, 28] was “below the threshold” and the pKd [24, 28] was “below the threshold”. For the same binder, the pKd [25, 28] was “below the threshold”.

Work on TVICWPGSLV [LNX2, Q8N448] yielded a pKd [1, 27] of 4.24, a pKd [2, 27] of 4.42 and a pKd [3, 27] of 3.95. The pKd [4, 27] was 4.01, the pKd [5, 27] was 4.1 and the pKd [6, 27] was 4.13. For the same binder, the pKd [7, 27] was 3.68, the pKd [8, 27] was “below the threshold” and the pKd [9, 27] was “below the threshold”. The pKd [10, 27] was “below the threshold”, the pKd [11, 27] was 5.07 and the pKd [12, 27] was 3.56. The pKd [13, 27] was “below the threshold”, the pKd [14, 27] was 3.99 and the pKd [15, 27] was “below the threshold”. For the same binder, the pKd [16, 27] was “below the threshold”, the pKd [17, 27] was 3.96 and the pKd [18, 27] was “below the threshold”. For the same binder, the pKd [19, 27] was 3.86, the pKd [20, 27] was “below the threshold” and the pKd [21, 27] was “below the threshold”. For the same binder, the pKd [22, 27] was 3.58, the pKd [23, 27] was “below the threshold” and the pKd [24, 27] was “below the threshold”. For the same binder, the pKd [25, 27] was “below the threshold”.

In the case of PVRVCEETSL [OTULIN, Q96BN8], the pKd [1, 29] is reported as 3.95, the pKd [2, 29] is reported as “below the threshold” and the pKd [3, 29] is reported as 5.58. The pKd [4, 29] was 3.75, the pKd [5, 29] was 4.61 and the pKd [6, 29] was “below the threshold”. For the same binder, the pKd [7, 29] was 3.59, the pKd [8, 29] was “below the threshold” and the pKd [9, 29] was “below the threshold”. The pKd [10, 29] was 3.52, the pKd [11, 29] was 3.54 and the pKd [12, 29] was 4.06. For the same binder, the pKd [13, 29] was “below the threshold”, the pKd [14, 29] was “below the threshold” and the pKd [15, 29] was “below the threshold”. The pKd [16, 29] was “below the threshold”, the pKd [17, 29] was 4.53 and the pKd [18, 29] was “below the threshold”. For the same binder, the pKd [19, 29] was 4.18, the pKd [20, 29] was 3.53 and the pKd [21, 29] was 3.66. The pKd [22, 29] was 4.63, the pKd [23, 29] was 3.51 and the pKd [24, 29] was “below the threshold”. For the same binder, the pKd [25, 29] was “below the threshold”.
